In this test the target is Q-PAS1 fragment of PpsR2 (Q-linker and PAS1 domain) fused with mRuby2 (Rhodopseudomonas palustris). The experiment in a line: cross-linking.

A word on the stoichiometry N: it is a count of units in the complex or per binding partner. The substance “Q-PAS1 fragment of PpsR2 (Q-linker and PAS1 domain) fused with mRuby2 (domain or fragment)” came in with a stoichiometry N of 2.

These data come from PMC6239862.
